Measurements: doi:10.1101/395996, “An interaction network of the human SEPT9 established by quantitative mass spectrometry reveals an interplay with myosin motors” (bioRxiv, 2018)

Target: T1, 6his-SEPT9 (human, UniProt Q9UHD8 2-586)
T1 construct: SEPT9, human, PCR amplified from the GFP-SEPT9_i1 plasmid; the forward primer starts at the second codon (aag aag tct tac tca gga gg), the reverse primer holds the stop codon; also called 6his tagged SEPT9; 6his-tagged SEPT9; source: E. coli, purified (IMAC, approx. 70 % purity; desalted into PBS); not shown: His6, N-terminal, kept
T1 sequence (looked up): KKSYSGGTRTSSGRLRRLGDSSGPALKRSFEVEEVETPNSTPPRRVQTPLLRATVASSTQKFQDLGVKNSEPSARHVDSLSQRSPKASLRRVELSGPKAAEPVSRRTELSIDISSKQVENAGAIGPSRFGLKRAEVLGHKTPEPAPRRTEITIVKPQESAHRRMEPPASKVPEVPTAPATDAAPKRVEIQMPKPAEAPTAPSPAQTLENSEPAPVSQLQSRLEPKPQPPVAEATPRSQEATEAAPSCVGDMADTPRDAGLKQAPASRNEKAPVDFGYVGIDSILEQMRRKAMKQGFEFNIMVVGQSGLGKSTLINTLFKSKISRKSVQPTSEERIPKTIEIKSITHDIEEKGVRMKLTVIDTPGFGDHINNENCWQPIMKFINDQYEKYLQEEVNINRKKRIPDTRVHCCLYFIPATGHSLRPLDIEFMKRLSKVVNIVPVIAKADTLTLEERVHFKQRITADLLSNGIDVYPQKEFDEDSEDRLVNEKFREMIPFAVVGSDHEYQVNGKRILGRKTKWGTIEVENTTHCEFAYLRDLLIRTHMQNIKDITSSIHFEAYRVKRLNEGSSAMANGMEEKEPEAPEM
Assay: pull-down; GST fusions immobilised on Glutathione Sepharose from crude E. coli extract, incubated with 2 µM 6his-SEPT9 for 1 h in PBS; Western blot with anti-6his antibody; free GST as control
Settings: both partners purified

B1: GST-MYO6_(835-1294) (domain or fragment, UniProt Q9UM54 835-1294, looked up)
chain: PRIDGLVKVGTLKKRLDKFNEVVSVLKDGKPEMNKQIKNLEISIDTLMAKIKSTMMTQEQIQKEYDALVKSSEELLSALQKKKQQEEEAERLRRIQEEMEKERKRREEDEKRRRKEEEERRMKLEMEAKRKQEEEERKKREDDEKRIQAEVEAQLARQKEEESQQQAVLEQERRDRELALRIAQSEAELISDEAQADLALRRSLDSYPVSKNDGTRPKMTPEQMAKEMSEFLSRGPAVLATKAAAGTKKYDLSKWKYAELRDTINTSCDIELLAACREEFHRRLKVYHAWKSKNKKRNTETEQRAPKSVTDYDFAPFLNNSPQQNPAAQIPARQREIEMNRQQRFFRIPFIRPADQYKDPQSKKKGWWYAHFDGPWIARQMELHPDKPPILLVAGKDDMEMCELNLEETGLTRKRGAEILPRQFEEIWERCGGIQYLQNAIESRQARPTYATAMLQSLLK
notes: cloned in pGEX2T; also called C-terminal tail fragment of MYO6; source: E. coli, immobilised on Glutathione Sepharose from the crude extract; not shown: GST, N-terminal, kept
Q: Does B1 bind?
A: Result: binds

B2: GST-MYO1C_(809-1063) (domain or fragment, human, UniProt O00159 809-1063, looked up)
chain: LDHVRTSFLLNLRRQLPQNVLDTSWPTPPPALREASELLRELCIKNMVWKYCRSISPEWKQQLQQKAVASEIFKGKKDNYPQSVPRLFISTRLGTDEISPRVLQALGSEPIQYAVPVVKYDRKGYKPRSRQLLLTPNAVVIVEDAKVKQRIDYANLTGISVSSLSDSLFVLHVQRADNKQKGDVVLQSDHVIETLTKTALSANRVNSININQGSITFAGGPGRDGTIDFTPGSELLITKAKNGHLAVVAPRLNSR
notes: MYO1C, C-terminal tail fragment, amino acids 809-1063, amplified from cDNA of human 1306 fibroblast mRNA; cloned in pGEX2T; also called C-terminal tail fragment of MYO1C; source: E. coli, immobilised on Glutathione Sepharose from the crude extract; not shown: GST, N-terminal, kept
Q: Does B2 bind?
A: Result: binds
